The target in this experiment is CD47 naturally expressed on CD47(+) Jurkat T lymphoma cells (human (endogenous in Jurkat), UniProt Q08722 19-323). Kind of experiment: FACS.
CD47 naturally expressed on CD47(+) Jurkat T lymphoma cells, sequence (Q08722 19-323): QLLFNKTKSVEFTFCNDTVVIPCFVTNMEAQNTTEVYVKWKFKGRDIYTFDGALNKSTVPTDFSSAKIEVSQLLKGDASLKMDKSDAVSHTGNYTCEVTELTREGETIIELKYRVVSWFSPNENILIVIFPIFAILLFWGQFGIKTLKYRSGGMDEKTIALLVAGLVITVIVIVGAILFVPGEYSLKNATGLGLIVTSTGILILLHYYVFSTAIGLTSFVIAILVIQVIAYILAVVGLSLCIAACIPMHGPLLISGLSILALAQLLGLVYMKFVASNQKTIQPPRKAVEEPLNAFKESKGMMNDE

B1: SIRPα-Avi-biotin (soluble, biotin-conjugated SIRPα d1 construct; allelic variant not stated for the experiment) (domain or fragment)
chain: EELQVIQPDKSVLVAAGETATLRCTATSLIPVGPIQWFRGAGPGRELIYNQKEGHFPRVTTVSDLTKRNNMDFSIRIGNITPADAGTYYCVKFRKGSPDDVEFKSG
modifications: biotin (biotin-conjugated, SIRPα-Avi-biotin)
In general, EC50 refers to the concentration needed to bring the measured effect to its halfway point. B1 returned an EC50 of 2000 nM.

These data come from PMC7117682 (2020).
